The values that follow come from patent US20100310509A1 (published 2010).

B1: soluble human LIFR (leukemia inhibitory factor receptor) (receptor, UniProt P42702 45-833, looked up)
chain: QKKGAPHDLKCVTNNLQVWNCSWKAPSGTGRGTDYEVCIENRSRSCYQLEKTSIKIPALSHGDYEITINSLHDFGSSTSKFTLNEQNVSLIPDTPEILNLSADFSTSTLYLKWNDRGSVFPHRSNVIWEIKVLRKESMELVKLVTHNTTLNGKDTLHHWSWASDMPLECAIHFVEIRCYIDNLHFSGLEEWSDWSPVKNISWIPDSQTKVFPQDKVILVGSDITFCCVSQEKVLSALIGHTNCPLIHLDGENVAIKIRNISVSASSGTNVVFTTEDNIFGTVIFAGYPPDTPQQLNCETHDLKEIICSWNPGRVTALVGPRATSYTLVESFSGKYVRLKRAEAPTNESYQLLFQMLPNQEIYNFTLNAHNPLGRSQSTILVNITEKVYPHTPTSFKVKDINSTAVKLSWHLPGNFAKINFLCEIEIKKSNSVQEQRNVTIKGVENSSYLVALDKLNPYTLYTFRIRCSTETFWKWSKWSNKKQHLTTEASPSKGPDTWREWSSDGKNLIIYWKPLPINEANGKILSYNVSCSSDEETQSLSEIPDPQHKAEIRLDKNDYIISVVAKNSVGSSPPSKIASMEIPNDDLKIEQVVGMGKGILLTWHYDPNMTCDYVIKWCNSSRSEPCLMDWRKVPSNSTETVIESDEFRPGIRYNFFLYGCRNQGYQLLRSMIGYIEELAPIVAPNFTVEDTSADSILVKWEDIPVEELRGFLRGYLFYFGKGERDTSKMRVLESGRSDIKVKNITDISQKTLRIADLQGKTSYHLVLRAYTDGGVGPEKSMYVVTKENS
notes: extracellular domain; Bought; also called soluble LIFR

Test [1] deals with T1, gp130 bound OSM-WT (gp130:OSM-WT) (human, UniProt P40189 23-619).
T1 construct: extracellular domain; Non-covalent complex formed on the plate: gp130 coated, then 200 nM OSM-WT; also called OSM-WT with gp130; not shown: N-terminal FLAG tag
T1 sequence 1: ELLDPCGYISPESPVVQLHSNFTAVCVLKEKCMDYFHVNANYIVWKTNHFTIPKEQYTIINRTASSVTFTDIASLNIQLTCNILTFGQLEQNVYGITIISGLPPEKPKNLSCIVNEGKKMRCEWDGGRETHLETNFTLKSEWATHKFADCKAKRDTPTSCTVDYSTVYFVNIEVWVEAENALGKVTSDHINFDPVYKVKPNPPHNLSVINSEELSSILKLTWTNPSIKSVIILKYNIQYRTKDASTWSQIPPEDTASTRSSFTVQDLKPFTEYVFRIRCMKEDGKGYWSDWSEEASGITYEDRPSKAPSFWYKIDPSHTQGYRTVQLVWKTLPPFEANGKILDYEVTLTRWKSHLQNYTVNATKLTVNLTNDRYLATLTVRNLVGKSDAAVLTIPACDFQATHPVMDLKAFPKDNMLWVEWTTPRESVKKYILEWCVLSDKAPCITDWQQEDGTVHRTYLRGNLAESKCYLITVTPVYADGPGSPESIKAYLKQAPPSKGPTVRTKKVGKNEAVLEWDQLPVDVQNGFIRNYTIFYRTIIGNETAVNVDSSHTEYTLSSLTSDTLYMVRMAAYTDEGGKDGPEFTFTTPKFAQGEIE
T1 sequence 2: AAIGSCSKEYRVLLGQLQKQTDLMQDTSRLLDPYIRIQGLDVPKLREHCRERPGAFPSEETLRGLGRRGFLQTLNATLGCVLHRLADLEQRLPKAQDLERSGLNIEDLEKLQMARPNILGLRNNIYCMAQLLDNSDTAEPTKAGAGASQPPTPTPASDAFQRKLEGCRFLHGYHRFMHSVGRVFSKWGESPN
The test can be described thus: ELISA, apparent KD (KD,App), gp130 coated, saturating cytokine, soluble LIFR titrated (with gp130). As to the method: (§1) FIG. 13 graphically depicts an ELISA analysis of soluble OSMR and soluble LIFR binding with LIF, OSM-WT, OSM-M1 and OSM-M2 or gp130 bound LIF (gp130:LIF), OSM-WT (gp130:OSM-WT), OSM-M1 (gp130:OSM-M1) and OSM-M2 (gp130:OSM-M2). Cytokines (LIF, OSM-WT, OSM-M1 or OSM-M2) immobilized on an ELISA plate in the absence (A,C) or presence (B,D) of gp130 were treated with various concentrations of soluble OSMR (A,B) or soluble LIFR (C,D). Equilibrium KD values were estimated using a non-linear curve fitting to the binding data using GraphPad Prism (Graph Pad Software. LaJolla, Calif.). In addition, see Table 3.
(§2) Enzyme-linked immunosorbent assay (ELISA): ELISA was used to evaluate the equilibrium binding strength of the interaction between the cytokines and their receptors. This technique has traditionally been used as a sensitive method to quantify the binding affinities between two interacting proteins. However, unlike in SPR, ELISA involves immobilization of the proteins on a flat plastic surface driven by hydrophobic and ionic interactions. This might cause some distortion in the 3 dimensional structure of immobilized protein which leads to inaccuracies in the estimation of dissociation constants. It is thus important to bear in mind that the values estimated using this technique are to be used only for comparison between species but not as true equilibrium binding constants. The results obtained using this technique will thus be presented as apparent equilibrium dissociation constants (K_{D,App}). For direct interaction studies, cytokines (LIF, OSM-WT, OSM-M1 or OSM-M2) were immobilized on the 96 well ELISA plate by incubating the wells with 200 μl of 5 nM cytokine solution in PBS, pH 7.4 overnight at 4° C. The wells were then blocked with blocking buffer (4% BSA in PBS) for 1 hour at room temperature. After washing with 250 μl of washing buffer (0.05% Tween-20 in PBS) 3 times, the cytokines were treated with a series of concentrations of soluble human LIFR (Catalog #249-LR-050/CF, R&D Systems, Minneapolis, Minn.) or OSMR (Catalog #4389-OR-050, R&D Systems, Minneapolis, Minn.) in 150 μl of blocking buffer for 2 hours.
For orientation: ELISA stands for enzyme-linked immunosorbent assay.

In test [2] the target is B1. The description is as above. As to the method: as §1, §2

As to B1, the Kd in test [1] was found to be 70.3 nM.

B2: gp130 bound LIF (gp130:LIF) (other)
chain 1: ELLDPCGYISPESPVVQLHSNFTAVCVLKEKCMDYFHVNANYIVWKTNHFTIPKEQYTIINRTASSVTFTDIASLNIQLTCNILTFGQLEQNVYGITIISGLPPEKPKNLSCIVNEGKKMRCEWDGGRETHLETNFTLKSEWATHKFADCKAKRDTPTSCTVDYSTVYFVNIEVWVEAENALGKVTSDHINFDPVYKVKPNPPHNLSVINSEELSSILKLTWTNPSIKSVIILKYNIQYRTKDASTWSQIPPEDTASTRSSFTVQDLKPFTEYVFRIRCMKEDGKGYWSDWSEEASGITYEDRPSKAPSFWYKIDPSHTQGYRTVQLVWKTLPPFEANGKILDYEVTLTRWKSHLQNYTVNATKLTVNLTNDRYLATLTVRNLVGKSDAAVLTIPACDFQATHPVMDLKAFPKDNMLWVEWTTPRESVKKYILEWCVLSDKAPCITDWQQEDGTVHRTYLRGNLAESKCYLITVTPVYADGPGSPESIKAYLKQAPPSKGPTVRTKKVGKNEAVLEWDQLPVDVQNGFIRNYTIFYRTIIGNETAVNVDSSHTEYTLSSLTSDTLYMVRMAAYTDEGGKDGPEFTFTTPKFAQGEIE
chain 2: not shown
notes: Non-covalent complex formed on the plate: gp130 coated, then saturating cytokine; also called LIF with gp130
For B2, in test [2], the Kd worked out at 10.3 nM.

B3: gp130 bound OSM-M2 (gp130:OSM-M2) (other, human)
chain 1: ELLDPCGYISPESPVVQLHSNFTAVCVLKEKCMDYFHVNANYIVWKTNHFTIPKEQYTIINRTASSVTFTDIASLNIQLTCNILTFGQLEQNVYGITIISGLPPEKPKNLSCIVNEGKKMRCEWDGGRETHLETNFTLKSEWATHKFADCKAKRDTPTSCTVDYSTVYFVNIEVWVEAENALGKVTSDHINFDPVYKVKPNPPHNLSVINSEELSSILKLTWTNPSIKSVIILKYNIQYRTKDASTWSQIPPEDTASTRSSFTVQDLKPFTEYVFRIRCMKEDGKGYWSDWSEEASGITYEDRPSKAPSFWYKIDPSHTQGYRTVQLVWKTLPPFEANGKILDYEVTLTRWKSHLQNYTVNATKLTVNLTNDRYLATLTVRNLVGKSDAAVLTIPACDFQATHPVMDLKAFPKDNMLWVEWTTPRESVKKYILEWCVLSDKAPCITDWQQEDGTVHRTYLRGNLAESKCYLITVTPVYADGPGSPESIKAYLKQAPPSKGPTVRTKKVGKNEAVLEWDQLPVDVQNGFIRNYTIFYRTIIGNETAVNVDSSHTEYTLSSLTSDTLYMVRMAAYTDEGGKDGPEFTFTTPKFAQGEIE
chain 2: AAIGSCSKEYRVLLGQLQKQTDLMQDTSRLLDPYIRIQGLDVPKLREHCRERPGAFPSEETLRGLGRRGFLQTLNATLGCVLHRLADLEQRLGGGNIEDLEKLQMARPNILGLRNNIYCMAQLLDNSDTAEPTKAGAGASQPPTPTPASDAFQRKLEGCRFLHGYHRFMHSVGRVFSKWGESPN
notes: extracellular domain; Non-covalent complex formed on the plate: gp130 coated, then 200 nM OSM-M2; also called OSM-M2 with gp130; not shown: N-terminal FLAG tag
In the case of B3, in test [2], the Kd was found to be 9.13 nM.

B4: gp130 bound OSM-M1 (gp130:OSM-M1) (other, human)
chain 1: ELLDPCGYISPESPVVQLHSNFTAVCVLKEKCMDYFHVNANYIVWKTNHFTIPKEQYTIINRTASSVTFTDIASLNIQLTCNILTFGQLEQNVYGITIISGLPPEKPKNLSCIVNEGKKMRCEWDGGRETHLETNFTLKSEWATHKFADCKAKRDTPTSCTVDYSTVYFVNIEVWVEAENALGKVTSDHINFDPVYKVKPNPPHNLSVINSEELSSILKLTWTNPSIKSVIILKYNIQYRTKDASTWSQIPPEDTASTRSSFTVQDLKPFTEYVFRIRCMKEDGKGYWSDWSEEASGITYEDRPSKAPSFWYKIDPSHTQGYRTVQLVWKTLPPFEANGKILDYEVTLTRWKSHLQNYTVNATKLTVNLTNDRYLATLTVRNLVGKSDAAVLTIPACDFQATHPVMDLKAFPKDNMLWVEWTTPRESVKKYILEWCVLSDKAPCITDWQQEDGTVHRTYLRGNLAESKCYLITVTPVYADGPGSPESIKAYLKQAPPSKGPTVRTKKVGKNEAVLEWDQLPVDVQNGFIRNYTIFYRTIIGNETAVNVDSSHTEYTLSSLTSDTLYMVRMAAYTDEGGKDGPEFTFTTPKFAQGEIE
chain 2: AAIGSCSKEYRVLLGQLQKQTDLMQDTSRLLDPYIRIQGLDVPKLREHCRERPGAFPSEETLRGLGRRGFLQTLNATLGCVLHRLADLEQRLGAPSGLNIEDLEKLQMARPNILGLRNNIYCMAQLLDNSDTAEPTKAGAGASQPPTPTPASDAFQRKLEGCRFLHGYHRFMHSVGRVFSKWGESPN
notes: extracellular domain; Non-covalent complex formed on the plate: gp130 coated, then 200 nM OSM-M1; also called OSM-M1 with gp130; not shown: N-terminal FLAG tag
As to B4, the Kd in test [2] was 12.6 nM.
